Two molecules from paper PMC11359169, “[…] CLOCK-ASSOCIATED1 Delays Flowering by Directly Inhibiting the Transcription of BcSOC1 in Pak-choi” can be followed below.

For one data set, the target named is BcCCA1 (Brassica campestris (syn. Brassica …, UniProt F5B4H3 1-554)). Nature of the data set: EMSA; cold probe competition 10x, 100x, 250x; Chemiluminescent EMSA kit (Beyotime); buffer, salt, pH and temperature not stated. The settings on record: protein: recombinant; tags: His (pCold-His); label: biotin (5' and 3' ends per Methods); blunt.
BcCCA1 (Brassica campestris, sequence (F5B4H3 entry or part of it): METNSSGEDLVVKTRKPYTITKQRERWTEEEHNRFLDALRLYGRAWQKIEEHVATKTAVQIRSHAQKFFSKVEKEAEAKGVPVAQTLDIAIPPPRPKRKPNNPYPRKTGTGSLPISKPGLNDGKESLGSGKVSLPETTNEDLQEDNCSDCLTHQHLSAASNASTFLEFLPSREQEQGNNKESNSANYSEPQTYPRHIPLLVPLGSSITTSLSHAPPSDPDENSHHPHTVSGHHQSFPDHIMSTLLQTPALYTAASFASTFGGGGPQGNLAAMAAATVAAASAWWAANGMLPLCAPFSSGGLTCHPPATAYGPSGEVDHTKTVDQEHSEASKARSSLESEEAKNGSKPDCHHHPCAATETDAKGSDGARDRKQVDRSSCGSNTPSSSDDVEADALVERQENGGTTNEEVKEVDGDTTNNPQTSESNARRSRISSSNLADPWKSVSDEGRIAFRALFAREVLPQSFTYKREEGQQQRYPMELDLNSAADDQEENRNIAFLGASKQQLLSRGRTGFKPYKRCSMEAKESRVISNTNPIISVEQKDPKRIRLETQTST
The target of the next data set is BcFLC (Brassica campestris (syn. Brassica …, UniProt A4L9R7 1-196)). The data set is described as above. The conditions noted are these: protein: recombinant; tags: GST (pGEX-4T-1); chain copies: 2; label: biotin (5' and 3' ends per Methods); blunt.
BcFLC (Brassica campestris, sequence (A4L9R7 entry or part of it): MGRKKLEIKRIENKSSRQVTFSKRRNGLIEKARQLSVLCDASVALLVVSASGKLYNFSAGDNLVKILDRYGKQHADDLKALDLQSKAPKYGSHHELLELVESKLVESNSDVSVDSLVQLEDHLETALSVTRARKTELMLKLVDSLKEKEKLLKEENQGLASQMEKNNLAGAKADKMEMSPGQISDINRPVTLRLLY

B1: MBS probe (BcSOC1 promoter) (dsDNA)
DNA 1: TCCCCGTCAACGTATGTTGA
DNA 2: TCAACATACGTTGACGGGGA
On to B1, for which the binding result with BcCCA1 is “binds”.

B2: GATA probe (BcSOC1 promoter) (dsDNA)
DNA 1: GTAAAGGATGAGGTTTCAAG
DNA 2: CTTGAAACCTCATCCTTTAC
Consider B2, for which the binding result with BcFLC is “binds”.
